Measurements as given in publication PMC5153404.

Legend:
[1] = molecular target: Recombinant mature human gC1qR (residues 74-282) (UniProt Q07021); experiment: ELISA; details: 2.5 μg/well gh protein, 90 min at 37°C and 90 min at 4°C, parent: est. 100, read off a plot
[2] = molecular target: Recombinant mature human gC1qR (residues 74-282) (UniProt Q07021); experiment: ELISA; gC1qR coated at 0.25, 0.5 and 1 μg/well; 2.5 μg/well of gh module or substitution mutant; 90 min at 37°C and 90 min at 4°C; detected with anti-MBP monoclonal antibody

Recombinant mature human gC1qR (residues 74-282), sequence (Q07021 74-282): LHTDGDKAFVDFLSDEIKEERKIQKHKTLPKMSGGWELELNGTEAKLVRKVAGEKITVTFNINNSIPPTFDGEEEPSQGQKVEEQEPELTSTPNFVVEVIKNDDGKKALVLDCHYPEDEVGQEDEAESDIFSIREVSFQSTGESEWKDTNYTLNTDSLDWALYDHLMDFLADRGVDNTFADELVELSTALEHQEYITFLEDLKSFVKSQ
Recombinant globular head module of the human C1q B chain (ghB), MBP fusion (from UniProt P02746) T175L, sequence (P02746 117-253, stated change not applied): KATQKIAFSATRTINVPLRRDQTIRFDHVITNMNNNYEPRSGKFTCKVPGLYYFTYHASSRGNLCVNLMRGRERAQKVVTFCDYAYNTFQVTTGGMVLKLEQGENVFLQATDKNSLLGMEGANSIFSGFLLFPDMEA
Recombinant globular head module of the human C1q B chain (ghB), MBP fusion (from UniProt P02746) R129A, sequence (P02746 117-253, stated change not applied): as above
Recombinant globular head module of the human C1q C chain (ghC), MBP fusion (from UniProt P02747) R156E, sequence (P02747 115-245, stated change not applied): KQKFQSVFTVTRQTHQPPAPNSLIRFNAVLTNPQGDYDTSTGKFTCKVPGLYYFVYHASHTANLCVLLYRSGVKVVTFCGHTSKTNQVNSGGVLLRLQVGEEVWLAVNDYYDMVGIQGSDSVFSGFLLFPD
Recombinant globular head module of the human C1q C chain (ghC), MBP fusion (from UniProt P02747) L170E, sequence (P02747 115-245, stated change not applied): as above
Recombinant globular head module of the human C1q C chain (ghC), MBP fusion (from UniProt P02747) H101A, sequence (P02747 115-245, stated change not applied): as above

| percent of parent ([1]; 0.25 μg/well gC1qR coated) | percent of parent ([1]; 0.5 μg/well gC1qR coated) | percent of parent ([1]; 1 μg/well gC1qR coated) | percent reduction in binding against wild-type ghA [2] | percent reduction in binding against wild-type ghB [2] | Substance |
| --- | --- | --- | --- | --- | --- |
| 27 % binding | 33 % binding | 30 % binding | – | – | Recombinant globular head module of the human C1q B chain (ghB), MBP fusion (from UniProt P02746) R129A |
| 62 % binding | 56 % binding | 68 % binding | – | – | Recombinant globular head module of the human C1q B chain (ghB), MBP fusion (from UniProt P02746) T175L |
| 51 % binding | – | 79 % binding | – | – | Recombinant globular head module of the human C1q C chain (ghC), MBP fusion (from UniProt P02747) H101A |
| 62 % binding | 91 % binding | 100 % binding | – | – | Recombinant globular head module of the human C1q C chain (ghC), MBP fusion (from UniProt P02747) L170E |
| 81 % binding | 110 % binding | 110 % binding | – | – | Recombinant globular head module of the human C1q C chain (ghC), MBP fusion (from UniProt P02747) R156E |
| – | – | – | < 70% | – | ghA-R162A, MBP fusion (from UniProt P02745 23-245) (domain or fragment) |
| – | – | – | – | 60% | ghB-H117D, MBP fusion (from UniProt P02746 28-253) (domain or fragment) |
